Laboratory results as given in patent publication US20210324054A1.

How the values were obtained:
[1] = biological target: Antigen DN-IV-Ag# (Fapon Biotech Inc.) (dengue virus); experiment: indirect ELISA on coated DN-IV-Ag#, antibody diluted 27 times
[2] = biological target: DN-IV quality control recombinant protein (produced by the company) (dengue virus); experiment: BLI, antibody on AMC sensor
[3] = biological target: Antigen DN-IV-Ag# (Fapon Biotech Inc.) (dengue virus); experiment: indirect ELISA on coated DN-IV-Ag#, antibody diluted 81 times
[4] = biological target: Antigen DN-IV-Ag# (Fapon Biotech Inc.) (dengue virus); experiment: indirect ELISA on coated DN-IV-Ag#, antibody diluted 243 times
[5] = biological target: Antigen DN-IV-Ag# (Fapon Biotech Inc.) (dengue virus); experiment: indirect ELISA on coated DN-IV-Ag#, antibody diluted 3 times
[6] = biological target: Antigen DN-IV-Ag# (Fapon Biotech Inc.) (dengue virus); experiment: indirect ELISA on coated DN-IV-Ag#, antibody initial
[7] = biological target: Antigen DN-IV-Ag# (Fapon Biotech Inc.) (dengue virus); experiment: indirect ELISA on coated DN-IV-Ag#, antibody diluted 9 times
[8] = biological target: Antigen DN-IV-Ag# (Fapon Biotech Inc.) (dengue virus); experiment: indirect ELISA on coated DN-IV-Ag#, antibody diluted 729 times

B1: WT (recombinant anti-dengue virus NS1 7F8 antibody of Example 2) (antibody, mouse IgG1, kappa, V domains shown)
VH: EVQLQQPGPELVKPGASVKMSCKASGYTVTSYVIHWVRQKPGQGLEWIGYMNAYNDGIKYNEKFIGKAILTSDKSSSTAYMQLSSLTSEDSAVYYCTKEGLFYVMDYWGQGTSVTVSS
VL: QIVLTQSPAIMSASPGEKVTMTCSATSSISYMHWYQQKSGTSPKRWIYDTSKLASPVPVRFSGSGSGTSYSLTISSMEAEDAATYFCQYWRSDLPTFGAGTKLELKR
OD450 (reference 630 nm) [1]: 0.398 OD | Kd [2]: 3.15 nM | koff [2]: 0.000139 s⁻¹ | kon [2]: 44200 M⁻¹ s⁻¹ | OD450 (reference 630 nm) [3]: 0.24 OD | OD450 (reference 630 nm) [4]: 0.2 OD | OD450 (reference 630 nm) [5]: 1.18 OD | OD450 (reference 630 nm) [6]: 1.42 OD | OD450 (reference 630 nm) [7]: 0.781 OD | OD450 (reference 630 nm) [8]: 0.211 OD

B2: Mutation 1-14 (antibody, V domains shown)
VH: EVQLQQPGPELVKPGASVKMSCKASGYTFTSYVIHWVRQKPGQGLEWIGYMNPYNDGIKYNEKFIGKAILTSDKSSSTAYMQLSSLTSEDSAVYYCTKEGLFYVMDYWGQGTSVTVSS
VL: QIVLTQSPAIMSASPGEKVTMTCSATSSVSYMHWYQQKSGTSPKRWIYDSSKLASGVPVRFSGSGSGTSYSLTISSMEAEDAATYFCQQWRSDLPTFGAGTKLELKR
Kd [2]: 2.75 nM | koff [2]: 0.00012 s⁻¹ | kon [2]: 43600 M⁻¹ s⁻¹

B3: Mutation 1-19 (antibody, V domains shown)
VH: EVQLQQPGPELVKPGASVKMSCKASGYTFTSSVIHWVRQKPGQGLEWIGYMNPYNDGIKYNEKFIGKAILTSDKSSSTAYMQLSSLTSEDSAVYYCTREGLFYVMDYWGQGTSVTVSS
VL: QIVLTQSPAIMSASPGEKVTMTCSATSSVSYMHWYQQKSGTSPKRWIYDTSKLASGVPVRFSGSGSGTSYSLTISSMEAEDAATYFCQQWRSDLPTFGAGTKLELKR
Kd [2]: 2.41 nM | koff [2]: 0.000113 s⁻¹ | kon [2]: 46800 M⁻¹ s⁻¹

B4: Mutation 1-20 (antibody, V domains shown)
VH: EVQLQQPGPELVKPGASVKMSCKASGYTFTSYVIHWVRQKPGQGLEWIGYMNPYNDGLKYNEKFIGKAILTSDKSSSTAYMQLSSLTSEDSAVYYCTKEGLFYVFDYWGQGTSVTVSS
VL: QIVLTQSPAIMSASPGEKVTMTCSATSSISYMHWYQQKSGTSPKRWIYDSSKLASGVPVRFSGSGSGTSYSLTISSMEAEDAATYFCQYWRSDLPTFGAGTKLELKR
Kd [2]: 3.53 nM | koff [2]: 0.000161 s⁻¹ | kon [2]: 45600 M⁻¹ s⁻¹

B5: Mutation 2 (antibody, V domains shown)
VH: EVQLQQPGPELVKPGASVKMSCKASGYTFTSTVIHWVRQKPGQGLEWIGYMNGYNDGLKYNNKFIGKAILTSDKSSSTAYMQLSSLTSEDSAVYYCTKEGLFYVMDYWGQGTSVTVSS
VL: QIVLTQSPAIMSASPGEKVTMTCSATSSISYMHWYQQKSGTSPKRWIYDTSKLASAVPVRFSGSGSGTSYSLTISSMEAEDAATYFCQQWRSDLPTFGAGTKLELKR
OD450 (reference 630 nm) [1]: 0.578 OD | OD450 (reference 630 nm) [3]: 0.216 OD | OD450 (reference 630 nm) [4]: 0.11 OD | OD450 (reference 630 nm) [5]: 1.48 OD | OD450 (reference 630 nm) [6]: 1.59 OD | OD450 (reference 630 nm) [7]: 1.05 OD | OD450 (reference 630 nm) [8]: 0.157 OD

B6: Mutation 1-17 (antibody, V domains shown)
VH: EVQLQQPGPELVKPGASVKMSCKASGYTFTSYVIHWVRQKPGQGLEWIGYMNPYNDGIKYNEKFIGKAILTSDKSSSTAYMQLSSLTSEDSAVYYCTKEGLFYVMDYWGQGTSVTVSS
VL: QIVLTQSPAIMSASPGEKVTMTCSATSSVSYMHWYQQKSGTSPKRWIYDSSKLASGVPVRFSGSGSGTSYSLTISSMEAEDAATYFCQWWRSDLPTFGAGTKLELKR
Kd [2]: 2.52 nM | koff [2]: 0.000114 s⁻¹ | kon [2]: 45200 M⁻¹ s⁻¹

B7: Mutation 3 (antibody, V domains shown)
VH: EVQLQQPGPELVKPGASVKMSCKASGYTLTSTVIHWVRQKPGQGLEWIGYMNKYNDGLKYNPKFIGKAILTSDKSSSTAYMQLSSLTSEDSAVYYCTKEGLFYVMDYWGQGTSVTVSS
VL: QIVLTQSPAIMSASPGEKVTMTCSVTSSISYMHWYQQKSGTSPKRWIYDTSKLASCVPVRFSGSGSGTSYSLTISSMEAEDAATYFCQQWRSQLPTFGAGTKLELKR
OD450 (reference 630 nm) [5]: 0.347 OD | OD450 (reference 630 nm) [6]: 0.923 OD | OD450 (reference 630 nm) [7]: 0.062 OD

B8: Mutation 1-16 (antibody, V domains shown)
VH: EVQLQQPGPELVKPGASVKMSCKASGYTFTSSVIHWVRQKPGQGLEWIGYMNPYNDGLKYNEKFIGKAILTSDKSSSTAYMQLSSLTSEDSAVYYCTREGLFYVMDYWGQGTSVTVSS
VL: QIVLTQSPAIMSASPGEKVTMTCSATSSLSYMHWYQQKSGTSPKRWIYDTSKLASGVPVRFSGSGSGTSYSLTISSMEAEDAATYFCQWWRSDLPTFGAGTKLELKR
Kd [2]: 3.38 nM | koff [2]: 0.000124 s⁻¹ | kon [2]: 36700 M⁻¹ s⁻¹

B9: Mutation 1-15 (antibody, V domains shown)
VH: EVQLQQPGPELVKPGASVKMSCKASGYTFTSTVIHWVRQKPGQGLEWIGYMNPYNDGIKYNEKFIGKAILTSDKSSSTAYMQLSSLTSEDSAVYYCTKEGLFYVFDYWGQGTSVTVSS
VL: QIVLTQSPAIMSASPGEKVTMTCSATSSISYMHWYQQKSGTSPKRWIYDSSKLASGVPVRFSGSGSGTSYSLTISSMEAEDAATYFCQYWRSDLPTFGAGTKLELKR
Kd [2]: 3.79 nM | koff [2]: 0.00017 s⁻¹ | kon [2]: 44800 M⁻¹ s⁻¹

B10: Mutation 1-18 (antibody, V domains shown)
VH: EVQLQQPGPELVKPGASVKMSCKASGYTFTSTVIHWVRQKPGQGLEWIGYMNPYNDGLKYNEKFIGKAILTSDKSSSTAYMQLSSLTSEDSAVYYCTKEGLFYVFDYWGQGTSVTVSS
VL: QIVLTQSPAIMSASPGEKVTMTCSATSSLSYMHWYQQKSGTSPKRWIYDSSKLASGVPVRFSGSGSGTSYSLTISSMEAEDAATYFCQYWRSDLPTFGAGTKLELKR
Kd [2]: 0.572 nM | koff [2]: 0.000243 s⁻¹ | kon [2]: 425000 M⁻¹ s⁻¹

B11: Mutation 1 (antibody, V domains shown)
VH: EVQLQQPGPELVKPGASVKMSCKASGYTFTSTVIHWVRQKPGQGLEWIGYMNPYNDGLKYNEKFIGKAILTSDKSSSTAYMQLSSLTSEDSAVYYCTKEGLFYVMDYWGQGTSVTVSS
VL: QIVLTQSPAIMSASPGEKVTMTCSATSSISYMHWYQQKSGTSPKRWIYDTSKLASGVPVRFSGSGSGTSYSLTISSMEAEDAATYFCQQWRSDLPTFGAGTKLELKR
OD450 (reference 630 nm) [1]: 0.445 OD | Kd [2]: 2.85 nM | koff [2]: 0.000126 s⁻¹ | kon [2]: 44200 M⁻¹ s⁻¹ | OD450 (reference 630 nm) [3]: 0.203 OD | OD450 (reference 630 nm) [4]: 0.103 OD | OD450 (reference 630 nm) [5]: 1.39 OD | OD450 (reference 630 nm) [6]: 1.61 OD | OD450 (reference 630 nm) [7]: 1.07 OD | OD450 (reference 630 nm) [8]: 0.111 OD

B12: Mutation 1-22 (antibody, V domains shown)
VH: EVQLQQPGPELVKPGASVKMSCKASGYTFTSSVIHWVRQKPGQGLEWIGYMNPYNDGLKYNEKFIGKAILTSDKSSSTAYMQLSSLTSEDSAVYYCTREGLFYVFDYWGQGTSVTVSS
VL: QIVLTQSPAIMSASPGEKVTMTCSATSSVSYMHWYQQKSGTSPKRWIYDSSKLASGVPVRFSGSGSGTSYSLTISSMEAEDAATYFCQWWRSDLPTFGAGTKLELKR
Kd [2]: 0.59 nM | koff [2]: 0.000245 s⁻¹ | kon [2]: 415000 M⁻¹ s⁻¹

B13: Mutation 1-21 (antibody, V domains shown)
VH: EVQLQQPGPELVKPGASVKMSCKASGYTFTSTVIHWVRQKPGQGLEWIGYMNPYNDGIKYNEKFIGKAILTSDKSSSTAYMQLSSLTSEDSAVYYCTREGLFYVMDYWGQGTSVTVSS
VL: QIVLTQSPAIMSASPGEKVTMTCSATSSLSYMHWYQQKSGTSPKRWIYDTSKLASGVPVRFSGSGSGTSYSLTISSMEAEDAATYFCQWWRSDLPTFGAGTKLELKR
Kd [2]: 0.693 nM | koff [2]: 0.000269 s⁻¹ | kon [2]: 388000 M⁻¹ s⁻¹
